# Measurements: the nanobody polyreactivity screen of Harvey et al. (2022)
# Test: yeast display, Sf9 membrane polyspecificity reagent, FACS + sequencing; frameworks hold sequencing errors
# Summary of the method: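 Genes from sorted yeast were amplified by colony PCR, read by MiSeq 2 × 250 sequencing and filtered on CDR length. These cells carried a synthetic nanobody library in Saccharomyces cerevisiae BJ5465 and were sorted by FACS into low and high (top ~1%) gates on anti-HA and streptavidin fluorescence. Polyreactivity is labelled according to the gate of origin.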
row,Sequence,polyreactivity (PSR sort gate)
1,QVQLVESGGGLVQAGGSLRLSCAASGFIFYINAMGWYRQAPGKERELVAAISTSGGSTYYADSVKGRFTISRDNAKNTVYLQMNSLKPEDTAVYYCAAEGSYWYYSYDYWGQGTQVTVSS,high polyreactivity
2,QVQLVESGGGLVQAGGSLRLSCAASGFIFYIYAMGWYRQAPGKERELVAAISRSSARTYYADSVKGRFTISRYNAKNTVYLQMISLKPEDTAVYDCAARYSGQWYRGPQYGYWGQGTQVTVSS,high polyreactivity
3,QVQLVESGGGLVQAGGSLRLSCAASGFIFYKNAMGWYRKAPGKERELVAAISSRGGSTSYADSVKGRFTISRDNAKNTVYLQMNSLKREDTAVYYCAAYPDYSYYYWGQGTQVTVSS,high polyreactivity
4,QVQLVESGGGLVQAGGSLRLSCAASGFIFYKNTMGWYRQAPGKERELVAAITDGDHTNYADSVKGRFTISRDYAKNTVYLQMNSLKPEDTAVYYCAADYAWNYAFGYWGQGTQVTVSS,low polyreactivity
5,QVQLVESGGGLVQAGGSLRLSCAASGFIFYKYAMGWYRQAPGKERELVAAITWRGGRTNYADSVKGRFTISRDYAKNTVYLQMNSLKPEDTAVYYCAADPWSSSYYYSYEYWGQGTQVTVSS,high polyreactivity
6,QVQLVESGGGLVQAGGSLRLSCAASGFIFYLYAMGWYRPAPGKERELVAAISRRGGSTYYADSVKGRFTISRDNAKNTVYLQMNSLKPEDTAVYYCAAYGDDGRDYWGQGTQVTVSS,high polyreactivity
7,QVQLVESGGGLVQAGGSLRLSCAASGFIFYNYAMGWYRQAPGKERELVADINSTGITYYADSVKGRFTISRDNAKNTVYLQMNSLKPEDTAVYYCAKDILTSSYRAYSPFEYGYWGQGTQVTVSS,low polyreactivity
8,QVQLVESGGGLVQAGGSLRLSCAASGFIFYQYAMGWYRQAPGKERELVAVINKSGGRTYYADSVKGRFTISRDNAKNTVYLQMNSLKPEDPAVYYCNAVSKLAVNLDYWGQGTQVTVSS,high polyreactivity
9,QVQLVESGGGLVQAGGSLRLSCAASGFIFYQYTMGWYRQAPGKERELVAAISSGGSTYYADSVKGRFTISRDNAKNTVYLQMNSLKPEDTAVYYCAAVAYGNWYRYYYWGQGTQVTVSS,high polyreactivity
10,QVQLVESGGGLVQAGGSLRLSCAASGFIFYRNTKGWYRQAPGKEREFVAAIRWRGGSTYYADSVKGRFTISRDNAKNTVYLQMNSLNPEDTAVYYCNAPYKQDYDYWGQGTQVTVSS,high polyreactivity
11,QVQLVESGGGLVQAGGSLRLSCAASGFIFYRNTMGWYRQAPGKEREFVAAIRWRGGSTYYADPVKGRFTISRDNAKNTVYLQMNSLKPEDTAVYYCAADTRPGYSGFEYWGQGTQVTVSS,high polyreactivity
12,QVQLVESGGGLVQAGGSLRLSCAASGFIFYRNVMGWYRQAPGKERELVAAISGSGGRTYYADSVKGRFTISRDNAKNTVYLQMNSLKPEDTAVYYCAADASLEGDYWGQGTQVTVSS,high polyreactivity
13,QVQLVESGGGLVQAGGSLRLSCAASGFIFYRYAMGCYRQAPGTEREFVAAISFRDGITYADSVKGRFTISRDNAKNTVYLQMNTLKPEDTAVYYCNAALSQLRRGGLAMDYWGQGTQVTVSS,low polyreactivity
14,QVQLVESGGGLVQAGGSLRLSCAASGFIFYRYAMGWYRPAPGKVRELVAAINWSGGGTYYADSVKGRFTISRDHAKNTVYLQKNSRKPEETAVYYCAAGRSFRGSYWYEYCGQGTQVTVSS,high polyreactivity
15,QVQLVESGGGLVQAGGSLRLSCAASGFIFYRYAMGWYRQAPGKEREFVAAISRSGGSTYYADSVKGRFTISRDNAKNTVYLQKNSLKPEDTAVYYCNTYQHGYYVAEYDYWGQGTQVTVSS,high polyreactivity
16,QVQLVESGGGLVQAGGSLRLSCAASGFIFYRYAMGWYRQAPGKERELVAAIRGGGSTYYADSVKGRFTISRDNAKTTVYLQMNSLKPEDTAVYYCNAVYGVRPNRYHYDYWGQGTQVTVSS,low polyreactivity

row,Sequence,polyreactivity (PSR sort gate)
1,QVQLVESGGGLVQAGGSLRLSCAASGFIFYRYAMGWYRQAPGKERELVSAISYRGGSTYYADSVKGRFTISRDNAKNTVYLQMNSLKPEDTAVYYCAASLRYYGLEMDYWGQGTQVTVSS,high polyreactivity
2,QVQLVESGGGLVQAGGSLRLSCAASGFIFYRYAMGWYRQAPGKESELVAAISWGGGSTTYYADSVKGRFTISRDNAKNTVYLQMNSLKPEDTAVYYCAAYIVKGYGSEYYYWGQGTQVTVSS,low polyreactivity
3,QVQLVESGGGLVQAGGSLRLSCAASGFIFYRYAMGWYRQAPGNERELVAAISRSGGSTYYADSVKGRFTISRDNAKNTVYLQMNSLKPEDTAVYYCATPGQRKLYLVNYLGQGTQVTVSS,low polyreactivity
4,QVQLVESGGGLVQAGGSLRLSCAASGFIFYRYAMVWYRQAPGKEREFVARISANGGRTYYADSVKGRFTISRDNAKNTVYLQMNSLKPEDTAVYYCNAGRYATPYNYWGQGTQVTVSS,high polyreactivity
5,QVQLVESGGGLVQAGGSLRLSCAASGFIFYRYTMGWSRQAPGKERELVAGSSSRGTRTYYADSVKGRFTISRDNAKNTVYLQMNSLKPEDTAVYYCAKVDGSKRYNYWGQGTQVTVSS,high polyreactivity
6,QVQLVESGGGLVQAGGSLRLSCAASGFIFYRYTMGWYRQAPGKERELVASISSGGSTNYADSVKGRFTISRDNAKNTVYLQMNSLKPEDTAVYYCAASRFRWVQRYDYWGQGTQVTVSS,high polyreactivity
7,QVQLVESGGGLVQAGGSLRLSCAASGFIFYSNAMGWYRQEPGKERELLADINRGGTSTYYADSVKGRFTISRDNAKNTVYLQMNSLKPEDTAVYYCNAGLRYRSRLWNIYWYDYWGQGTQVTVSS,high polyreactivity
8,QVQLVESGGGLVQAGGSLRLSCAASGFIFYSYAMGWYRQAPGKERELVAAISSSGRTNYADSVKGRFTISRDNAKNTVYLQMNSLKPEDTAVYYCNVVRWHGYRVGRYDYWGQGSQVTVSS,high polyreactivity
9,QVQLVESGGGLVQAGGSLRLSCAASGFIFYSYDMGWYRQAPGKERELVAAIDSRGVNTYFADSVKGRFTISRDNAKNTVYLQMNSLKPEDTAVYYCNVDAITWWDWEDFDSWGQGTQVTVSS,low polyreactivity
10,QVQLVESGGGLVQAGGSLRLSCAASGFIFYTNAMAWYRQAPGNERQLVATLTTSGGRTYYADSVKGRFTISRDNAKNSVYLQMNSLKPEDTAVYYCATRYVVIEYDYWGQGTEVTVSS,low polyreactivity
11,QVQLVESGGGLVQAGGSLRLSCAASGFIFYTYAMGWYRQAPGKERELVAGINSGGDTNYADSVKGRFTISRDNAKNTVYLQINSLKPEDTAVYYCAATSYVHKYYGYFGAIKYEYWGHGTQVTVSS,low polyreactivity
12,QVQLVESGGGLVQAGGSLRLSCAASGFIFYYAMGWYRQAPGKERELVAAISSGSSTYADSVKGRFTISRDNAKNTVYLQMNSLKPEDTAVYYCATRYSSWYSNRDYDYWGQGTQVTVSS,low polyreactivity
13,QVQLVESGGGLVQAGGSLRLSCAASGFIFYYYAMGWYRQAPGKERELVAAITGSGGNTYYADSVKGRFTISRDYAKNTVYFQMNSLKPEDTAFYYCNTGYDWGGDYWGQGTQVTVSS,high polyreactivity
14,QVQLVESGGGLVQAGGSLRLSCAASGFIFYYYAMGWYSQAPGKERELVARISRGGSTYYADSVKGRFTISRDNAKNTVYLQMNSLKPEDTAVYYCAKVSIARIKTRYNYWGQGTQVTVSS,high polyreactivity
15,QVQLVESGGGLVQAGGSLRLSCAASGFIFYYYDMGWYRQAPGKERELVAAISFDGDSTYYADSVKGRFTISRDNAKNTVYLQMNSLKPEDTAVYYCAARDYRYRYGYWGQGTQVTVSS,high polyreactivity
16,QVQLVESGGGLVQAGGSLRLSCAASGFIIDPNAMGWYSQAPGKERDLVAAISSSGGRTYYADSVKGRFTISRDNAKNTVYFQLNSLKPEDTAVYYCATDTSVQGQEYDYWGKGTQVTVSS,low polyreactivity
